{
  "source": "paper PMC4831847",
  "test_system": "hPBV RdRP WT (human picobirnavirus strain Hy005102)",
  "assay": "EMSA",
  "conditions": "50 mM Tris-HCl pH 7.5, 50 mM KCl, 1 mM NaN3, 5 mM beta-mercaptoethanol, 10% glycerol, 1 nM 32P-RNA, 30 min at room temperature, 15% native PAGE in ice bath",
  "data": [
    {"substance": "CACACACACACACACACACA [CA repeat 20-mer]", "values": [
      {"measurement": "binding signal (fold lower affinity than 5'-(+)UTR)", "value": 10}
    ]},
    {"substance": "GGACUAACAGUCCCAACUGC [PBV 3'-(+)UTR]", "values": [
      {"measurement": "binding signal (fold lower affinity than 5'-(+)UTR)", "value": 10}
    ]},
    {"substance": "GUAAAAUUUUCGAAUUUUAU [PBV 5'-(+)UTR]", "values": [
      {"measurement": "binding signal", "setting": "scale: fold higher affinity than 3'-(+)UTR or CA repeat", "value": 10}
    ]},
    {"substance": "PBV2+ full-length", "values": [
      {"measurement": "binding signal (fold stronger than PBV2+(Δ1-645))", "value": 10}
    ]},
    {"substance": "PBV2+(Δ1-645)", "values": [
      {"measurement": "binding signal (fold weaker than full-length PBV2+)", "value": 10}
    ]}
  ]
}
